± gives the standard deviation.
Assay: protein stability index of a GFP-peptide fusion (GPS, HEK-293T) (PSI 1-6); higher = more stable
[1] = treatment: DMSO, c terminus: a fixed tail appended
[2] = treatment: MLN4924 1 uM, 8 h, c terminus: a fixed tail appended
[3] = treatment: DMSO, c terminus: native
[4] = treatment: MLN4924 1 uM, 8 h, c terminus: native
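Note: 24-mer peptide tiles fused after GFP, lentivirally expressed, FACS-sorted into six equal bins by GFP/DsRed ratio, decoded by Illumina sequencing, PSI is the read-weighted mean bin number.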

Sequence | protein stability index [1] | protein stability index [2] | protein stability index [3] | protein stability index [4]
QSHDDLSNATATPSVRKKAGSFSR [C2CD2L] | 4.75 ± 0.31 | 4.67 ± 0.2 |  | 
LCKNLNREAQQYSEALASTRILKH [GLIPR2] | 3.57 ± 0.32 | 3.74 ± 0.33 |  | 
RDYVRLFGIKCAKCQVGFSSSDLV [ISL2] | 2.51 ± 0.52 | 2.25 ± 0.23 |  | 
ASIPEHLAYGSVITVKNLRMAIGY [POMT2] | 2.41 ± 0.29 | 2.43 ± 0.33 |  | 
QRKLKPPIVPKIAGDGDTSNFETY [PRKX] | 4.38 ± 0.16 | 4.47 ± 0.12 |  | 
FYSAYLVAEKVVVITKHNDDEQYA [HSP90AB1] | 2.18 ± 0.23 | 2.11 ± 0.43 |  | 
NCPWPMSCPGSSYRTVVRPTYKVM [EMID1] | 2.62 ± 0.26 | 2.47 ± 0.4 |  | 
ARRQWRDECLMRLAKLKSQVQPQ [CRYL1] |  |  | 2.9 ± 0.77 | 3.33 ± 0.73
TQSDEENGRACEMNGEECAEDLRM [IKZF1] | 5.66 ± 0.28 | 5.66 ± 0.19 |  | 
EIIEGNTKSHIMLVQRQMSVIEED [NECAB1] | 3.56 ± 0.35 | 3.73 ± 0.26 |  | 
SSLFMDTEKSGKREFDVRQTPQVN [WEE1] | 4.58 ± 0.26 | 4.71 ± 0.27 |  | 
ISCFNNAPPAKLACPVCSKMVPRY [FAN1] | 2.24 ± 0.19 | 2.67 ± 0.26 |  | 
FKGNKYWAVQGQNVLHGYPKDIYS [MMP1] | 2.3 ± 0.21 | 2.46 ± 0.2 |  | 
LAVLGADERIFSLTRRLAHGEELR [HAGHL] | 2.82 ± 0.23 | 2.81 ± 0.38 |  | 
WGPWGPWGDCSRTCGGGVQFSSRD [ADAMTS4] | 2.46 ± 0.36 | 2.16 ± 0.14 |  | 
SIGIDNLGLKLEENLQETHSAVL [SLC35F2] |  |  | 4.34 ± 0.31 | 4.53 ± 0.19
IQYLTENIWASQSVLSACDNLSDL [IQUB] | 2.49 ± 0.34 | 2.49 ± 0.3 |  | 
LVVFTASMEIYGSAVADKLDNSRS [CTDNEP1] | 2.92 ± 0.74 | 2.26 ± 0.37 |  | 
RLNAYRGYCSNQLAAKALLDQKKQ [NET1] | 3.25 ± 0.25 | 3.25 ± 0.26 |  | 
LNATSKFMEFYQDVKDWWLFGFYF [EDNRA] | 2.49 ± 0.86 | 2.13 ± 0.37 |  | 
LTKAATSGVGIDGEVLSYLELAQF [RHOBTB1] | 2.44 ± 0.18 | 2.47 ± 0.43 |  | 
PKTNEDFEFLYNALEFWRQEELTR [IQUB] | 2.63 ± 0.31 | 2.23 ± 0.43 |  | 
TLCKADLEAQVESLKEELMCLKKN [KRT36] | 3.51 ± 0.4 | 3.83 ± 0.15 |  | 

Sequence | protein stability index [1] | protein stability index [2] | protein stability index [3] | protein stability index [4]
YSQKESGHSNWLGDPEEPLTGFSW [ATL3] | 1.92 ± 0.44 | 2.78 ± 0.1 |  | 
SFFLQIYLIMIFLGLYINFRHLYK [HACD3] | 2.79 ± 0.2 | 2.52 ± 0.041 |  | 
GTNAWEEIATKPHEKIGFPAARRC [KLHDC10] | 3.96 ± 0.22 | 3.91 ± 0.37 |  | 
IPPSSDRTPEILKKALSGLSSRWK [CDS1] | 2.39 ± 0.49 | 2.29 ± 0.46 |  | 
PEYTYGISNIDTTIEGTSDDLTVV [MFF] | 4.61 ± 0.15 | 4.56 ± 0.078 |  | 
KKENKMTWAPKNKGGEERKAEGGE [IRX6] | 5.39 ± 0.2 | 5.51 ± 0.27 |  | 
TYLSKVDPDGKKIKQIQQLFEEIL [FBXO33] | 2.25 ± 0.24 | 1.84 ± 0.26 |  | 
RQGLKYCLPLTFCIHTGLSQYIAV [FBXO3] | 3.08 ± 0.45 | 2.87 ± 0.52 |  | 
TKVQKKSLLLKKPLRVDLILENTS [NOP53] | 2.71 ± 0.19 | 2.84 ± 0.39 |  | 
VWDASRAPRGTPDPGLGEGPALWL [PLEKHN1] | 2.74 ± 0.25 | 2.79 ± 0.38 |  | 
VKLNVGGSLHYTTLRTLTGQDTML [KCTD13] | 2.45 ± 0.47 | 2.27 ± 0.28 |  | 
VYSQASTMSIPVAMETDGPLFEDV [PPP2R5C] | 3.94 ± 0.31 | 4.14 ± 0.15 |  | 
SSVQSYPGSASLAQSRLEDPGADS [DLX1] | 5.23 ± 0.2 | 5.52 ± 0.24 |  | 
MECPEGQLPISSENDSTPTVSTSE [TAF7L] | 5.46 ± 0.12 | 5.59 ± 0.25 |  | 
DSYYRLVIHRALDREQVSSYNITV [PCDHGA10] | 2.87 ± 0.6 | 2.44 ± 0.55 |  | 
IIHHMRLQAKALQLIVTARTTRGL [INTS4] | 2.5 ± 0.58 | 2.26 ± 0.28 |  | 
SEGRRVSFGVDEEERVRVLQGVRL [CHCHD6] | 4.38 ± 0.19 | 4.38 ± 0.3 |  | 
VGVDGVRAFLQTYSHEVSLTADSR [PCDHGA10] | 2.49 ± 0.37 | 2.61 ± 0.39 |  | 
GAQVKELEEKCQQPASELLQDVRV [TRIM15] | 5.4 ± 0.36 | 5.43 ± 0.12 |  | 
RRSPRPDHPGTPPHKTFRKLRLFD [WEE1] | 3.4 ± 0.078 | 3.71 ± 0.34 |  | 
EFDLSPLNLDIGQVYKETRLFLDG [AASDHPPT] | 2.89 ± 0.28 | 2.96 ± 0.27 |  | 
AIMLLPDENREVLQTLLYFLSDVT [DLC1] | 2.12 ± 0.23 | 2.19 ± 0.13 |  | 
RSLLGYDPQILQMLKEEHQIILEN [RAD54B] | 2.94 ± 0.19 | 3.11 ± 0.21 |  | 

Sequence | protein stability index [1] | protein stability index [2] | protein stability index [3] | protein stability index [4]
SEAKSHSSADDASAWSNIQEAPLQ [FAN1] | 5.29 ± 0.31 | 5.04 ± 0.46 |  | 
EEEKILRVKLEEDPDGEEGSSIPW [ZNF24] | 5.56 ± 0.13 | 5.58 ± 0.26 |  | 
IEAEGATAPLTELLHSRNEGVATY [CTNNB1] | 4.32 ± 0.27 | 4.31 ± 0.25 |  | 
ACGLSDVAHVESLQEKSQCALEEY [NR2F2] | 4.58 ± 0.28 | 4.67 ± 0.3 |  | 
ELFRLRGIKAQVALRLAELARRRR [NOP53] | 2.36 ± 0.23 | 2.55 ± 0.22 |  | 
RRTLQGLEIELQSQLSMKAGLENT [KRT13] | 3.4 ± 0.24 | 3.34 ± 0.37 |  | 
EVDWEYFYGLLFTSENLKLVHIVC [DFFB] | 3.34 ± 0.39 | 2.56 ± 0.94 |  | 
EEKMETKTESSGIETEPTVHHLPL [EPB41L3] | 5.56 ± 0.37 | 5.49 ± 0.27 |  | 
EWETEVEMDKLRASDIMEPNLTYV [CLCN6] | 3.85 ± 0.32 | 4.08 ± 0.19 |  | 
VDLFKQLCEKEPLGNVLFSPICLS [SERPINB5] | 1.98 ± 0.18 | 2.08 ± 0.41 |  | 
DCDTSSICEDSFDGRSLSKLNLCE [SCARA5] | 4.84 ± 0.16 | 5.05 ± 0.12 |  | 
FVGDLSPEITTEDIKAAFAPFGRI [TIA1] | 3.11 ± 1 | 2.7 ± 0.18 |  | 
TSTVNSAREELMESRMRIESLSSQ [LMNB1] | 4.54 ± 0.15 | 4.51 ± 0.18 |  | 
SSNKKEKKVLNHGYDDDNHDYIVR [DYRK1B] | 4.55 ± 0.22 | 4.45 ± 0.19 |  | 
RDHVETELLKEAELIRNIQELLKR [TEKT4] | 2.74 ± 0.16 | 3.01 ± 0.36 |  | 
NEVIADINCKGRSKSNLGWTPLHL [OSBPL1A] | 2.48 ± 0.38 | 2.76 ± 0.28 |  | 
ESLPRSEIDEKVTDLVQFLLFKYQ [MAGEA10] | 2.35 ± 0.069 | 2.83 ± 0.5 |  | 
PIIYFNDYWNLQKDYYPINESLAS [CLPTM1] | 2.71 ± 0.85 | 2.06 ± 0.2 |  | 
NISDLPFLAENSAFPKMALQAKQD [LCOR] | 4.42 ± 0.2 | 4.39 ± 0.2 |  | 
VKKKKEEGVIDSSDKEIVAEAERL [EIF5] | 5.04 ± 0.59 | 5.46 ± 0.2 |  | 
LCLNTEDSFVCQCSEGFLINEDLK [MATN2] | 3.03 ± 0.28 | 3.38 ± 0.28 |  | 
RQKEVDFCISLLRERFMECLMIGR [INTS3] | 2.52 ± 0.74 | 2.28 ± 0.13 |  | 
DCIFDKFECAWNGSDSVIMTGAYN [PPP2R2C] | 2.68 ± 0.3 | 2.74 ± 0.17 |  | 

Sequence | protein stability index [1] | protein stability index [2] | protein stability index [3] | protein stability index [4]
LGTKSCSSSCAVHDLIFWRDVKKT [RTN3] | 2.29 ± 0.45 | 2.09 ± 0.33 |  | 
EKMTILQTYFRQNRDEVLDNLLAF [ATP6V1G1] | 2.7 ± 0.46 | 2.632 ± 0.015 |  | 
LIRSLFHGFLFMIFQIGVLGFGPT [SOAT1] | 3.52 ± 0.5 | 3.28 ± 0.63 |  | 
GVCGDRATGFHFNAMTCEGCKGFF [VDR] | 2.28 ± 0.13 | 2.38 ± 0.19 |  | 
VQLATLAQRVKEVLPHVPLGVIQR [AUP1] | 2.51 ± 0.16 | 2.19 ± 0.29 |  | 
AYISLVEEEDQHMKLSLGGSEMGL [KLHL13] | 2.98 ± 0.38 | 3.06 ± 0.52 |  | 
VTLLVALKVRYRERITILRGNHES [PPP2CA] | 2.78 ± 0.5 | 2.67 ± 0.44 |  | 
VLRGRLYAIAGYDGNSLLSSIECY [KLHL12] | 1.91 ± 0.14 | 2.28 ± 0.13 |  | 
PCGPNMSEVSCKKRDDYLEWPEYF [DCTD] | 3.56 ± 0.23 | 3.6 ± 0.26 |  | 
EPYPSQLLKPIPEYSPEEESEPPA [TRAF3IP2] | 5.45 ± 0.12 | 5.66 ± 0.18 |  | 
CSTTDHPYKKPYMETSPSEEDSFY [TBX5] | 4.34 ± 0.13 | 4.31 ± 0.2 |  | 
PTLAKFSPYLGQMINLRRLLLSHI [PRAME] | 2.33 ± 0.42 | 2.15 ± 0.11 |  | 
RDSLSHLVPALRLPGRKLVSSAVS [INTS4] | 3.04 ± 0.12 | 3.21 ± 0.24 |  | 
FDLNNLDPELKNLFDMCGISEAQL [WASL] | 2.62 ± 0.55 | 2.83 ± 0.69 |  | 
VGEFPIISPGRVYEYTSCTTFSTT [FBXO3] | 2.3 ± 0.22 | 2.33 ± 0.32 |  | 
QEAPLQDDSCLNNDIPHSIPLEQG [FAN1] | 5.25 ± 0.34 | 5.27 ± 0.17 |  | 
KETLAVNYEKEEEFLTNELSRKLM [CCDC6] | 4.05 ± 0.25 | 4.44 ± 0.27 |  | 
SLCKVFGAHKDCQVAPLTHVFQRQ [TRIM55] | 2.41 ± 0.35 | 2.66 ± 0.2 |  | 
DAATTDELSSLGSDSEANGFAERR [TBC1D10A] | 5.47 ± 0.34 | 5.42 ± 0.23 |  | 
VFVCRVSAVLFYVNMYVSIVFFGL [P2RY14] | 3.36 ± 0.33 | 3.35 ± 0.54 |  | 

From the supplement of paper PMC10567573
